Measurements taken from publication PMC8729806, “Chaperones mainly suppress primary nucleation during formation of functional amyloid required for bacterial biofilm formation†” (Chemical Science, 2021).
One block for each molecule: values may come before it.

Key:
[1] = target: CsgA from E. coli (residues 21-151), without its signal sequence (E. coli) (UniProt P28307)
[2] = target: Full-length FapC (residues 25-250) from Pseudomonas sp. UK4, without its signal sequence (Pseudomonas sp. UK4)
[3] = target: CsgA from E. coli (residues 21-151), without its signal sequence (E. coli, UniProt P28307 21-151); test: cell-based or functional assay
Sequence of CsgA from E. coli (residues 21-151), without its signal sequence (P28307 21-151): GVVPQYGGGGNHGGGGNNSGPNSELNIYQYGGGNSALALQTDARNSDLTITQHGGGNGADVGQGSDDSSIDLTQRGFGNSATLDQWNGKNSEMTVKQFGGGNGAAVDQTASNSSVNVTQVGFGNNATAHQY

Sequence of Full-length FapC (residues 25-250) from Pseudomonas sp. UK4, without its signal sequence (Pseudomonas sp. UK4) (P0DXF5 25-250 limits assumed): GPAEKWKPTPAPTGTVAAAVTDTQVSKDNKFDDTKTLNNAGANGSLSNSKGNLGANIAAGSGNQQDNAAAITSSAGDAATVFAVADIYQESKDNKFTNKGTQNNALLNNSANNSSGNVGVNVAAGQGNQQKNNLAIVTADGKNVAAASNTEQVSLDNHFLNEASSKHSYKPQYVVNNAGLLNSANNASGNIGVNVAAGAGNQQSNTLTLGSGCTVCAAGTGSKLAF
Sequence of CsgA from E. coli (residues 21-151), without its signal sequence (E. coli) (P28307 21-151): as the sequence (P28307 21-151) above

Molecule: Bri2 BRICHOS monomer (M-Bri2) (domain or fragment)
fold reduction of the primary nucleation rate constant kn of spontaneous CsgA fibrillation (ThT kinetics, Amylofit), by 1 μM Bri2 monomer (fold reduction) [1]: 1000 | fold reduction of the primary nucleation rate constant kn of spontaneous FapC fibrillation (ThT kinetics, Amylofit), by 6 μM Bri2 monomer (fold reduction) [2]: 40

Molecule: Bri2 BRICHOS oligomer (O-Bri2) (from UniProt Q9Y287 137-231) (domain or fragment)
fold reduction of the primary nucleation rate constant kn of spontaneous CsgA fibrillation (ThT kinetics, Amylofit), by 1 μM Bri2 oligomer (fold reduction) [1]: 100000 | fold reduction of the primary nucleation rate constant kn of spontaneous FapC fibrillation (ThT kinetics, Amylofit), by 6 μM Bri2 oligomer (fold reduction) [2]: 10

B1: S100A9 (natural protein, human, UniProt P06702 1-114, looked up)
chain: MTCKMSQLERNIETIINTFHQYSVKLGHPDTLNQGEFKELVRKDLQNFLKKENKNEKVIEHIMEDLDTNADKQLSFEEFIMLMARLTWASHEKMHEGDEGPGHHHKPGLGEGTP
modifications: Alexa Fluor 546 label (peptide array only)
fold reduction of the primary nucleation rate constant kn of spontaneous FapC fibrillation (ThT kinetics, Amylofit), at 50 μM S100A9 (fold reduction) [2]: 6 | fold reduction of the primary nucleation rate constant kn of spontaneous CsgA fibrillation (ThT kinetics, Amylofit), at 4 μM S100A9 [3]: 20 fold reduction

Results, then the molecule that gave them:

fold reduction of the primary nucleation rate constant kn of spontaneous CsgA fibrillation (ThT kinetics, Amylofit), by 0.12 μM DNAJB6 (fold reduction) [1]: 1e+07 | fold reduction of the primary nucleation rate constant kn of spontaneous FapC fibrillation (ThT kinetics, Amylofit), by 0.6 μM DNAJB6 (fold reduction) [2]: 1000
Molecule: DNAJB6 mutant F91L, used as pseudowildtype (from UniProt O75190 1-326) (natural protein)

fold reduction of the primary nucleation rate constant kn of spontaneous CsgA fibrillation (ThT kinetics, Amylofit), by 1 μM CsgC [3]: ~100000 fold reduction
B2: CsgC (natural protein, UniProt P52107 9-110, looked up)
chain: ALSSQITFNTTQQGDVYTIIPEVTLTQSCLCRVQILSLREGSSGQSQTKQEKTLSLPANQPIALTKLSLNISPDDRVKIVVTVSDGQSLHLSQQWPPSSEKS
modifications: Alexa Fluor 546 label (peptide array only)
